In PMC11046469, “Leveraging a Phage-Encoded Noncanonical Amino Acid: A Novel Pathway to Potent and Selective Epigenetic Reader Protein Inhibitors” (ACS Central Science, 2024):
Where a SMILES comes first, the peptide text is derived from it. The star is where a group is joined. Butyryl = CCCC(=O)*

These compounds were tested against T1, ENL YEATS domain (His-ENL YEATS) (Homo sapiens, UniProt Q03111) (assay: AlphaScreen inhibition of ENL YEATS binding to biotinylated H3K27cr peptide). Conditions: mean ± SD, n = 3.
T1 construct: (aa 1−148) was cloned in pET19b; made in house; host or cells: E. coli BL21(DE3pLysS)
T1 sequence (Q03111 1-148): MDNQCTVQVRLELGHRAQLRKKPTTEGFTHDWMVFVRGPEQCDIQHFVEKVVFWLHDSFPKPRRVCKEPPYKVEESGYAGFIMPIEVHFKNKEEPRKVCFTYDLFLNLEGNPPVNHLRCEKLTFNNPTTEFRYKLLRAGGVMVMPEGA
Description: To test the inhibition potency of the two selected peptides for the ENL YEATS domain, ENL-S1 and ENL-S2 were chemically synthesized through solid-phase peptide synthesis (SPPS) and evaluated by an AlphaScreen assay. In this assay, a biotinylated H3K27cr peptide and a 6xHis-tagged ENL YEATS domain (His-ENL YEATS) were immobilized on PerkinElmer streptavidin donor and nickel-chelating (Ni-NTA) acceptor beads, respectively. The use of a His-ENL YEATS instead of the original AviSUMO-ENL YEATS construct in the assay prevents potential false positive results derived from ligands which bind to the SUMO protein but not to the ENL YEATS domain. […] We then assessed the binding affinity of two ligands for the ENL YEATS domain using biolayer interferometry (BLI). Briefly, His-ENL was immobilized onto Ni-NTA functionalized biosensors to measure the binding kinetics of target peptides at different concentrations. […] As a small peptide directly selected from a phage display library, this level of high potency was unexpected. […] However, shorter-than-10-mer linear peptides with nanomolar binding potency have rarely been directly selected from phage display libraries. One example was S2P03, a 7-mer peptide that has a KD value as 49 ± 9 nM to bind to SIRT2.[10] This peptide contained BuK and was identified also from a BuK-containing phage display library using the active site-directed ligand selection technique. Taken together, the two examples confirmed that utilizing phage display libraries incorporated with a ncAA serving as a ligand for a protein target for active site-directed ligand selection is a successful method for identifying ultrahigh potency ligands for epigenetic proteins including both enzymes and readers. For ENL-S1 and ENL-S2, their determined kon and koff values were 6.23 ± 0.07 × 10^4 M^–1 s^–1, […] and […], 5.54 ± 0.02 × 10^–3 s^–1, respectively. Compared to ENL-S2, ENL-S1 has faster binding to the ENL YEATS domain and slower release from it, indicating its potential long-term action on the ENL YEATS inhibition. […]
Characterization of Selected Peptide Inhibitors
AlphaScreen Assay to Validate ENL Inhibitors:
His-ENL, His-AF9 (aa 1-149, EpiCypher), and biotinylated H3K27cr (aa 15-33, EpiCypher) were used to assay the synthesized inhibitors. The lyophilized peptide inhibitors were dissolved in DMF […]
and serially diluted into assay buffer (50 mM HEPES, 100 mM NaCl, 0.1% BSA, 0.05% CHAPS, pH 7.4) and incubated in the presence of 120 nM His-tagged protein at 37 °C for 30 minutes. 12.5 μL of biotinylated H3K27cr (400 nM) was aliquoted into a light gray 384-well Alphaplate (Perkin Elmer) and incubated at 37 °C. 12.5 μL of the inhibitor/protein solution was added to the H3K27cr solution, and incubated for 30 minutes at 37 °C. 25 μL of AlphaScreen histidine (nickel chelate) detection beads (Perkin Elmer) was added at 20 μg/mL each bead (streptavidin donor beads and nickel chelate acceptor beads), and the plate was incubated at 37 °C for 30 minutes. The plate was cooled to room temperature for 10 minutes, and then the beads were excited at 680 nm and the luminescence at 615 nm was read. […]
Biolayer […]
interferometry assays were performed in 96 well plates (GreinerBio-One, polypropylene, flat-bottom) using an Octet Red96 System (Sartorius). Wells were filled with 200 μL of assay buffer, blocking buffer (assay buffer + 0.1% BSA), protein solution, peptide solution, regeneration solution, and reload solution. For immobilization, His-tagged proteins were immobilized onto Ni-NTA sensors at 20 for 600 s. Sensors were then dipped into blocking buffer for 180 s, assay […] buffer for 300 s, peptide solution for 300 s, and back to assay buffer for 300 s. If multiple samples were tested, Ni-NTA sensors can be reconditioned in regeneration (10 mM glycine, pH 1.7) solution followed by reload solution (10 mM NiCl2) for 30 and 60 s, respectively. Measurements […]

Compound | IC50 [µM]
CCCC(=O)NCCCC[C@H](NC(=O)[C@H](Cc1ccc(O)cc1)NC(=O)[C@H](CS)NC(=O)[C@H](Cc1ccc(O)cc1)NC(=O)[C@H](C)NC(=O)[C@H](CC(=O)O)NC(=O)[C@@H](N)Cc1ccc(O)cc1)C(N)=O [ENLS1A3] (H-YDAYCYK(Butyryl)-NH2; N-terminus assumed) | > 5

What follows are compounds tested against T2, ENL YEATS domain (AviSUMO-ENL YEATS) (Homo sapiens, UniProt Q03111) (assay: Phage panning of BuK-containing 7-mer library against AviSUMO-ENL YEATS with Illumina NGS abundance). Conditions: sheet ENLR3: round 3 of panning against ENL YEATS; TAG = amber codon (BuK); 7-mer library positions V1-V7.
T2 construct: encoding ENL YEATS (aa 1−148) was cloned in pET28a-; made in house; host or cells: E. coli BL21(DE3pLysS), co-expressed with BirA (pBirAcm)
T2 sequence (Q03111 1-148): T1 sequence (Q03111 1-148)
Summary of the method: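 Phage displaying BuK-containing amber-obligate 7-mer peptides, made with 5 mM BuK, was panned against biotinylated AviSUMO-ENL YEATS on streptavidin beads with washes of rising stringency. Rounds 1 and 3 were sequenced by Illumina NGS, and sequences with mismatches were filtered out before copy-number abundance was counted.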

Compound | n (number of NGS reads of the unique amino acid sequence) | percent (share of sequence reads) [%]
QYGPRTAGD | 2 | 0.001821
CYDLCYG | 1 | 0.0009106
WWIIKTAGG | 9 | 0.008196
CWSTAGNGD | 1 | 0.0009106
QCGPRTAGY | 10 | 0.009106
TAGTVTFWY | 3 | 0.002732
WWVIETAGG | 4 | 0.003642
YDLYCYTAG | 3 | 0.002732
LNAEFTAGA | 1 | 0.0009106
YNVYCYTAG | 10 | 0.009106
YDVYCYL | 2 | 0.001821
HPIYCYTAG | 1 | 0.0009106
YYVYCYTAG | 38 | 0.0346
QCGQRTAGD | 10 | 0.009106
YDVYCYY | 26 | 0.02368
YLYYVPC | 6 | 0.005464
TAGVMSLYS | 2 | 0.001821
SCPPRTAGD | 10 | 0.009106
HLTLFTAGV | 4 | 0.003642

Compound | n (number of NGS reads of the unique amino acid sequence) | percent (share of sequence reads) [%]
HSIYCYTAG | 1 | 0.0009106
LTCYCYTAG | 39 | 0.03551
WWTIETAGG | 2 | 0.001821
YDVFCYTAG | 8 | 0.007285
HLTLFTAGD | 4 | 0.003642
KCGPRTAGD | 9 | 0.008196
CTAGGGSLF | 1 | 0.0009106
TAGWIIETAGG | 6 | 0.005464
KVTAGGGGV | 1 | 0.0009106
WWIIETAGE | 10 | 0.009106
YEVYCYTAG | 2 | 0.001821
LTAGSSASG | 1 | 0.0009106
YAIYCYTAG | 7 | 0.006374
FKCTAGNGC | 1 | 0.0009106
RTVYCYTAG | 142 | 0.1293
CPCWTAGLL | 1 | 0.0009106
YVVYCYTAG | 4 | 0.003642
KMPFTAGIS | 1 | 0.0009106
HFTLFTAGG | 2 | 0.001821

Same assay, conditions: sheet ENLR3: round 3 of selection against ENL YEATS; TAG = amber codon (BuK)

Compound | n (number of NGS reads of the 7-mer sequence V1-V7) | percent (share of NGS reads of the 7-mer sequence V1-V7) [%]
TAGCGPRYD | 1 | 0.0009106
WWIIATAGG | 1 | 0.0009106
WWIIELG | 1 | 0.0009106
YLYTAGVHC | 1 | 0.0009106
RTVYCHTAG | 1 | 0.0009106
WWINETAGG | 1 | 0.0009106
YLDDTAGLH | 1 | 0.0009106
TAGDVYCYTAG | 1 | 0.0009106
QCGPWTAGG | 1 | 0.0009106
QCSPRTAGD | 1 | 0.0009106
TAGSFLYSF | 1 | 0.0009106
TAGVFALVI | 1 | 0.0009106
WFIYTAGGC | 1 | 0.0009106
WCFMVFL | 1 | 0.0009106
YLYVTAGAC | 1 | 0.0009106
TAGKDQLWN | 1 | 0.0009106
TAGTYYVCR | 1 | 0.0009106
TAGAFFCIL | 1 | 0.0009106
